Experimental data reported in IntAct's records for PubMed 31515488.

B1: Calcium-binding and coiled-coil domain-containing protein 2 (Homo sapiens), Q13137 (parent)
chain: MEETIKDPPTSAVLLDHCHFSQVIFNSVEKFYIPGGDVTCHYTFTQHFIPRRKDWIGIFRVGWKTTREYYTFMWVTLPIDLNNKSAKQQEVQFKAYYLPKDDEYYQFCYVDEDGVVRGASIPFQFRPENEEDILVVTTQGEVEEIEQHNKELCKENQELKDSCISLQKQNSDMQAELQKKQEELETLQSINKKLELKVKEQKDYWETELLQLKEQNQKMSSENEKMGIRVDQLQAQLSTQEKEMEKLVQGDQDKTEQLEQLKKENDHLFLSLTEQRKDQKKLEQTVEQMKQNETTAMKKQQELMDENFDLSKRLSENEIICNALQRQKERLEGENDLLKRENSRLLSYMGLDFNSLPYQVPTSDEGGARQNPGLAYGNPYSGIQESSSPSPLSIKKCPICKADDICDHTLEQQQMQPLCFNCPICDKIFPATEKQIFEDHVFCHSL
partner: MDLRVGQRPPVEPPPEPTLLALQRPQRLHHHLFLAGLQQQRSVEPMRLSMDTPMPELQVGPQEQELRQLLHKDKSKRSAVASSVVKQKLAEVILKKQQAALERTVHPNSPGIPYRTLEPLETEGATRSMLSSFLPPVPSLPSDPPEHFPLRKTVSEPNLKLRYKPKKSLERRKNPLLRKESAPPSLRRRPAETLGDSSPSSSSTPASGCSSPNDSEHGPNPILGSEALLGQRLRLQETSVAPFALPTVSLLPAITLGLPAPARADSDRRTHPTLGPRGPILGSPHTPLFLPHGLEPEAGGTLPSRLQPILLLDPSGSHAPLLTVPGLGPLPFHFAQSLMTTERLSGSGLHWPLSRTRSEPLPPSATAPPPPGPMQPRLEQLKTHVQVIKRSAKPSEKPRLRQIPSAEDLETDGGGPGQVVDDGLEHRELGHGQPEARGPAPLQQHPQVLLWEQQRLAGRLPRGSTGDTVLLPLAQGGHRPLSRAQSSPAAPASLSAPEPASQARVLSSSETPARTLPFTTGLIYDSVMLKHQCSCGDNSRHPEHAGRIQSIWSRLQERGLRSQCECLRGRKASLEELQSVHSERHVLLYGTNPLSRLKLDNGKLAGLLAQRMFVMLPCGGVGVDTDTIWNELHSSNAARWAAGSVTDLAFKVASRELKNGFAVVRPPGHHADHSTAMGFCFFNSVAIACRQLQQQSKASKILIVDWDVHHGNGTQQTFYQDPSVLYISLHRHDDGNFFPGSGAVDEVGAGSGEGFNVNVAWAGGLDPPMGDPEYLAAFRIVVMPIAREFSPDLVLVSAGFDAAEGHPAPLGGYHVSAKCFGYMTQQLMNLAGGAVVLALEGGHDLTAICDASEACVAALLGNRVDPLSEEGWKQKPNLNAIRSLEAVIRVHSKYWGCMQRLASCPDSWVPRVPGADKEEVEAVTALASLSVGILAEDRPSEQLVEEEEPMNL
B2: E3 ubiquitin-protein ligase CHIP (Homo sapiens), Q9UNE7 (parent)
chain: MKGKEEKEGGARLGAGGGSPEKSPSAQELKEQGNRLFVGRKYPEAAACYGRAITRNPLVAVYYTNRALCYLKMQQHEQALADCRRALELDGQSVKAHFFLGQCQLEMESYDEAIANLQRAYSLAKEQRLNFGDDIPSALRIAKKKRWNSIEERRIHQESELHSYLSRLIAAERERELEECQRNHEGDEDDSHVRAQQACIEAKHDKYMADMDELFSQVDEKRKKRDIPDYLCGKISFELMREPCITPSGITYDRKDIEEHLQRVGHFDPVTRSPLTQEQLIPNLAMKEVIDAFISENGWVEDY
B3: Coiled-coil domain-containing protein 42 (Homo sapiens), Q96M95 (parent)
chain: MSLGIMEEEDLAEYFRLQYGERLLQMLQKLPNVEGASESPSIWLLEKKKETEIMHQTMVQKKKMFQRRMETLNLRWEELGVKEAQLKAHIQKSEQFIQENDQKRIRAMKKANKERELKCQHMQELTKRKQEMVALRLEHQRLSAKLKDYYIFNKYLEKVVENSEFEEIHEVIARYKTLVSMRHDLMQSAQEGQEKIERAKARLARYMEEKDDEILQQNNELARLQMRFDRARSNVIFWESRWAHIQNTAAKKTLLLGTIKMATLNLFQIVSKHLKEVTEVALEDTHKQLDMIQQFIQDRSDIWAEVKKKEQQRVRI
B4: DCC-interacting protein 13-alpha (Homo sapiens), Q9UKG1 (parent)
chain: MPGIDKLPIEETLEDSPQTRSLLGVFEEDATAISNYMNQLYQAMHRIYDAQNELSAATHLTSKLLKEYEKQRFPLGGDDEVMSSTLQQFSKVIDELSSCHAVLSTQLADAMMFPITQFKERDLKEILTLKEVFQIASNDHDAAINRYSRLSKKRENDKVKYEVTEDVYTSRKKQHQTMMHYFCALNTLQYKKKIALLEPLLGYMQAQISFFKMGSENLNEQLEEFLANIGTSVQNVRREMDSDIETMQQTIEDLEVASDPLYVPDPDPTKFPVNRNLTRKAGYLNARNKTGLVSSTWDRQFYFTQGGNLMSQARGDVAGGLAMDIDNCSVMAVDCEDRRYCFQITSFDGKKSSILQAESKKDHEEWICTINNISKQIYLSENPEETAARVNQSALEAVTPSPSFQQRHESLRPAAGQSRPPTARTSSSGSLGSESTNLAALSLDSLVAPDTPIQFDIISPVCEDQPGQAKAFGQGGRRTNPFGESGGSTKSETEDSILHQLFIVRFLGSMEVKSDDHPDVVYETMRQILAARAIHNIFRMTESHLLVTCDCLKLIDPQTQVTRLTFPLPCVVLYATHQENKRLFGFVLRTSSGRSESNLSSVCYIFESNNEGEKICDSVGLAKQIALHAELDRRASEKQKEIERVKEKQQKELNKQKQIEKDLEEQSRLIAASSRPNQASSEGQFVVLSSSQSEESDLGEGGKKRESEA
partner: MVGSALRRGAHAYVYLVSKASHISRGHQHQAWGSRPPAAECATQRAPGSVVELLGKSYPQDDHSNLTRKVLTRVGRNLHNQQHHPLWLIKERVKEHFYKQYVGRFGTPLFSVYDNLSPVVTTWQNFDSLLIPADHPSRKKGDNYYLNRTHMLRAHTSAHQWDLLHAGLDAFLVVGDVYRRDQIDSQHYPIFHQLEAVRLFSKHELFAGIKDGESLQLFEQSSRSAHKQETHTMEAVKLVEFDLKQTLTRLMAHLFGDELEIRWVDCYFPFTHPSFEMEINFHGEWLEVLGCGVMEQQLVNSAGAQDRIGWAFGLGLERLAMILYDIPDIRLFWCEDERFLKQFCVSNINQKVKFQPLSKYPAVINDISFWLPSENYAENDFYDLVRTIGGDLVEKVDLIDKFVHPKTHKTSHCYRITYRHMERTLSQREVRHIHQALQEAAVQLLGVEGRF
B5: Guanine nucleotide exchange factor for Rab-3A (Homo sapiens), Q8TBN0 (parent)
chain: MWSGPPQPDQGLPPPLAAVPVPWKSTDPCQGHRESPGALVETSAGEEAQGQEGPAAAQLDVLRLRSSSMEIREKGSEFLKEELHRAQKELKLKDEECERLSKVREQLEQELEELTASLFEEAHKMVREANMKQAASEKQLKEARGKIDMLQAEVTALKTLVITSTPASPNRELHPQLLSPTKAGPRKGHSRHKSTSSTLCPAVCPAAGHTLTPDREGKEVDTILFAEFQAWRESPTLDKTCPFLERVYREDVGPCLDFTMQELSVLVRAAVEDNTLTIEPVASQTLPTVKVAEVDCSSTNTCALSGLTRTCRHRIRLGDSKSHYYISPSSRARITAVCNFFTYIRYIQQGLVRQDAEPMFWEIMRLRKEMSLAKLGFFPQEA

Variants of: B1
Conditions: with hdac7_human HDAC7, Q8WUI4

| effect of a mutation on the interaction | Variant |
| --- | --- |
| with no effect | P389A |
| with no effect | T273A |

Variants of: B2
Conditions: with noe3_human OLFM3, Q96PB7
Sequence of noe3_human OLFM3, Q96PB7 (Q96PB7 whole entry): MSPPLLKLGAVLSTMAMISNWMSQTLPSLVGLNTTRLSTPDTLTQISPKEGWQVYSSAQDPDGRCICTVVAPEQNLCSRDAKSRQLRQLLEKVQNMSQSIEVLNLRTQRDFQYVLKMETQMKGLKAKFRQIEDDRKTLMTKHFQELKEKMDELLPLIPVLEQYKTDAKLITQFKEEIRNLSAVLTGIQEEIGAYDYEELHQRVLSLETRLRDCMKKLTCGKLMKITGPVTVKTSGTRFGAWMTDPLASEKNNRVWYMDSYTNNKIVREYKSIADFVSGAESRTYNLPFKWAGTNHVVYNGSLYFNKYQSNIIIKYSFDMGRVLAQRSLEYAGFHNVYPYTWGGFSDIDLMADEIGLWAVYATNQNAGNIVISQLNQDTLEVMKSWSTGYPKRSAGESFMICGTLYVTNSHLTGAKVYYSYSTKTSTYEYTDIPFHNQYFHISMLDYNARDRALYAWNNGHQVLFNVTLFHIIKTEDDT

| Variant | effect of a mutation on the interaction |
| --- | --- |
| Q181H | with no effect |

Variants of: B3
Conditions: with trim1_human MID2, Q9UJV3
Sequence of trim1_human MID2, Q9UJV3 (Q9UJV3 whole entry): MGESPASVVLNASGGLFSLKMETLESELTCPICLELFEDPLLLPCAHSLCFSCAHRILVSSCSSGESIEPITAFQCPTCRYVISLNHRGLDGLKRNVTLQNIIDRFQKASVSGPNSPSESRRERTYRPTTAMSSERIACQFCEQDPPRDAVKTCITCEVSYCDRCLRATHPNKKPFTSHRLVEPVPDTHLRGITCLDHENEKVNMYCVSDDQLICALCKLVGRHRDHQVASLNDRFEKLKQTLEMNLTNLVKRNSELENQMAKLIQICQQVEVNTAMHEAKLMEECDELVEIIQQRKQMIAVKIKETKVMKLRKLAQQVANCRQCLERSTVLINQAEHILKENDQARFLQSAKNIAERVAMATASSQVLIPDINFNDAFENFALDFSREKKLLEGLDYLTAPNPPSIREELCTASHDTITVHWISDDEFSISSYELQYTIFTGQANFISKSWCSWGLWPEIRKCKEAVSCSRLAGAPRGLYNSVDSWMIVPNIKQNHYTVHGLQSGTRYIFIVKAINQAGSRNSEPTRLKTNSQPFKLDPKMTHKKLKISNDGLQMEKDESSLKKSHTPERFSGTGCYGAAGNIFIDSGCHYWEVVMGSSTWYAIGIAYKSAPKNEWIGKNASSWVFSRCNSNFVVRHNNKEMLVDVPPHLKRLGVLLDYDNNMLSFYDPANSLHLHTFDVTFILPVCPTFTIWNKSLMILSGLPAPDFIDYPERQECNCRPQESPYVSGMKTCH

| effect of a mutation on the interaction | Variant |
| --- | --- |
| with no effect | A144T |
| with no effect | R128H |

Variants of: B3
Conditions: with tfp11_human TFIP11, Q9UBB9
Sequence of tfp11_human TFIP11, Q9UBB9 (Q9UBB9 whole entry): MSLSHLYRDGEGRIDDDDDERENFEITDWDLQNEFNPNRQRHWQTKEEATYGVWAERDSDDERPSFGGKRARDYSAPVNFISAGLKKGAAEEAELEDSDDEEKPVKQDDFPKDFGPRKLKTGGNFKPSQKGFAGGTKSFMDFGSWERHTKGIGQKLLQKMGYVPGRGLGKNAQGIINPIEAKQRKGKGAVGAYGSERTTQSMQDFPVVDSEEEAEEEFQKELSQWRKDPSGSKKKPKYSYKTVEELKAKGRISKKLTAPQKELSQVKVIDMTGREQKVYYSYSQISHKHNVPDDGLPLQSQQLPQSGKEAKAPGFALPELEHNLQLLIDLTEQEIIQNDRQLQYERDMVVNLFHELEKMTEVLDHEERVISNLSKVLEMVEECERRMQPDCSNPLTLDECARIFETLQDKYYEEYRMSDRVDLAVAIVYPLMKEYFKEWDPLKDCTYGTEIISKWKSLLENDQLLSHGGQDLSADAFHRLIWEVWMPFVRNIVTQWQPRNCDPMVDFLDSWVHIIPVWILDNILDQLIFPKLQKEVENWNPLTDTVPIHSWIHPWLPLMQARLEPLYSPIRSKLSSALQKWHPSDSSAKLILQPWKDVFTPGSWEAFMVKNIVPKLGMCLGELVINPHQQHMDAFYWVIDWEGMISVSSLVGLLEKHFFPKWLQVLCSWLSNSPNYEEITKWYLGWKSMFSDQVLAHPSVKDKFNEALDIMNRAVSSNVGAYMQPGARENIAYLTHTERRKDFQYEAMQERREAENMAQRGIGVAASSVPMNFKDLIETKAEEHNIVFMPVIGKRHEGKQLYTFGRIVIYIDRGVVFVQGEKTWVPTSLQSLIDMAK

| effect of a mutation on the interaction | Variant |
| --- | --- |
| with no effect | A144T |
| with no effect | R128H |

Variants of: B4
Conditions: with syfm_human FARS2, O95363

| effect of a mutation on the interaction | Variant |
| --- | --- |
| with no effect | E643Q |
| with no effect | E67G |

Variants of: B5
Conditions: with rb11a_human RAB11A

| effect of a mutation on the interaction | Variant |
| --- | --- |
| with no effect | S190P |
| with no effect | T26A |
